Measurements: patent US20070099283

Target: T1, propeptide (prosequence) of proteinase K from Tritirachium album Limber
T1 chain: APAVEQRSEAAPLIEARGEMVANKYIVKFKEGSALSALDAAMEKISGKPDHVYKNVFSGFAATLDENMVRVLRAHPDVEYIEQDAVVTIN

B1: mature recombinant proteinase K from Tritirachium album Limber (processed, natured from pro-proteinase K) (protein)
chain: AAQTNAPWGLARISSTSPGTSTYYYDESAGQGSCVYVIDTGIEASHPEFEGRAQMVKTYYYSSRDGNGHGTHCAGTVGSRTYGVAKKTQLFGVKVLDDNGSGQYSTIIAGMDFVASDKNNRNCPKGVVASLSLGGGYSSSVNSAAARLQSSGVMVAVAAGNNNADARNYSPASEPSVCTVGASDRYDRRSSFSNYGSVLDIFGPGTSILSTWIGGSTRSISGTSMATPHVAGLAAYLMTLGKTTAASACRYIADTANKGDLSNIPFGTVNLLAYNNYQA
proteinase K activity (chromogenic substrate test) of gel filtration fractions: no activity is found without prior activation
